# Reference: article PMC12295762, “Role of Individual Amino Acid Residues Directly Involved in Damage Recognition in Active Demethylation by ABH2 Dioxygenase”
# Numbering of substitutions follows the chain as printed.
# T1: ABH2 R110A (human, UniProt Q6NS38 1-261, R110A)
# T1 sequence: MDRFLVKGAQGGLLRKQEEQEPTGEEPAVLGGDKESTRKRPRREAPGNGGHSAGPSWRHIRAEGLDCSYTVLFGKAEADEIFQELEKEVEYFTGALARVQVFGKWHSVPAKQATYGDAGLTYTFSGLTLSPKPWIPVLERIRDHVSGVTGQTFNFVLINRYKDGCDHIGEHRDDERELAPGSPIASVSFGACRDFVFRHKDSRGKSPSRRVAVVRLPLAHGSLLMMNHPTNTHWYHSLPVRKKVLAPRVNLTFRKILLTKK
# T2: ABH2 F124A (human, UniProt Q6NS38 1-261, F124A)
# T2 sequence: T1 sequence with A110R, F124A
# T3: ABH2 R172A (human, UniProt Q6NS38 1-261, R172A)
# T3 sequence: T1 sequence with A110R, R172A
# T4: ABH2 E175A (human, UniProt Q6NS38 1-261, E175A)
# T4 sequence: T1 sequence with A110R, E175A
# T5: ABH2 V99A (human, UniProt Q6NS38 1-261, V99A)
# T5 sequence: T1 sequence with V99A, A110R
# T6: ABH2 S125A (human, UniProt Q6NS38 1-261, S125A)
# T6 sequence: T1 sequence with A110R, S125A
# B1: m1A dsDNA (dsDNA)
# DNA 1: AGTTCAATGATCTTCAT
# DNA 2: ATGAAGATCATTGAACT
# modifications: N1-methyladenine (m1A) at position 10 of strand 1
# B2: m3C dsDNA (dsDNA)
# DNA 1: AGTTCAATGATCTTCAT
# DNA 2: ATGAAGATCATTGAACT
# modifications: N3-methylcytosine (m3C) at position 12 of strand 1
# Experiments:
# Test in all cases: EMSA; 0.5 mM αKG, 10 mM Mg2+, 2 mM ascorbate; 50 mM Tris-HCl pH 8.0, 50 mM KCl, 10 mM MgCl2, 0.5 mM αKG, 2 mM sodium ascorbate; 1.2 µM DNA, 0.4-12.8 µM protein; 10 min 37 °C then 5 min on ice; 10% native PAGE, 0.5x TBE, 4-8 °C; Hill fit
# Settings in all cases: protein: recombinant; tags: N-terminal His6; label: 5'-FAM on strand 1; blunt
# ABH2 R110A = target: T1, ABH2 R110A
# ABH2 F124A = target: T2, ABH2 F124A
# ABH2 R172A = target: T3, ABH2 R172A
# ABH2 E175A = target: T4, ABH2 E175A
# ABH2 V99A = target: T5, ABH2 V99A
# ABH2 S125A = target: T6, ABH2 S125A
Binder,Kd (ABH2 R110A),Kd (ABH2 F124A),Kd (ABH2 R172A),Kd (ABH2 E175A),Kd (ABH2 V99A),Kd (ABH2 S125A)
B1,3.4 ± 0.2 µM,3.1 ± 0.3 µM,2.1 ± 0.08 µM,2.44 ± 0.06 µM,3.2 ± 0.3 µM,2.7 ± 0.3 µM
B2,4 ± 0.3 µM,4.4 ± 0.7 µM,2.6 ± 0.4 µM,2.96 ± 0.04 µM,2.5 ± 0.6 µM,4 ± 0.3 µM
